Assay results published in patent US20080261892A1, “Acid Addition Salts of Ac-Phscn-Nh2” (priority 2005, published 2008).

Legend:
Type in all cases: physicochemical
[1] = Solution phase stability of free base and hydrochloride salt (monomer vs dimer by HPLC), Example 15; conditions: for % dimer / % monomer: solution in distilled water, 25±1° C.
Procedure: A 1.657 mM solution of Ac—PHSCN—NH2 in distilled water and a 1.653 mM solution of the hydrochloride salt of Ac—PHSCN—NH2 in distilled water were placed in a water bath at 25±1° C. Aliquots (800 μL) were periodically removed and the amount of dimerization was determined by HPLC.
(§1) All HPLC spectra were taken on a Waters HPLC that included Breeze software, a Waters 2487 Dual λ Absorbance Detector, a Waters 1525 Binary HPLC Pump, and a Waters 717 plus Autosampler. The column was a Phenomenex Synergi 4μ Hydro-RP 80A, 250×4.60 mm 4μ micron. The 40 minute gradient that was used is described in the table below.
Mobile Phase A: 0.1% TFA in acetonitrile Mobile Phase B: 0.1% TFA in water
(§2) The HPLC peak for Ac-Pro-His-Ser-Cys-Asn-NH2 monomer at approximately 9.2 minutes, and the peak for ATN-161 dimer at approximately 10.0 minutes were integrated in order to determine the percentage of these two species in each sample.

[2] = Solid phase stability of free base and hydrochloride salt (monomer vs dimer by HPLC), Example 16; conditions: for % dimer / % monomer: solid stored at 25±1° C.
Procedure: as §1, §2
Samples of 0.8-1.2 mg of Ac—PHSCN—NH2 and Ac—PHSCN—NH2 hydrochloride salt were weighed into HPLC sample vials and stored at 25±1° C. A 0 h time point was taken. Samples were periodically removed and diluted with distilled water to give a 1 mg/mL solution. The amount of dimerization was determined by HPLC as described in Example 15. The results are illustrated graphically in FIG. 3.

[3] = Solution phase stability of free base, methanesulfonic acid salt and nitric acid salt (HPLC), Example 17; conditions: solution in distilled water, 25±0.5° C.
Procedure: as §1
A t=0 h timepoint was taken for each solution. The volumetric flasks were placed in a water bath at 25±0.5° C. and, periodically, a 0.7 mL aliquot was removed and the solution analyzed by HPLC as described in Example 15.

[4] = Solid phase stability of free base, methanesulfonic acid salt and nitric acid salt (HPLC), Example 18; conditions: solid stored at 25±0.5° C.
Procedure: as §1

With “Ac-Pro-His-Ser-Cys-Asn-NH2, hydrochloride salt (Ac-PHSCN-NH2; also: hydrochloride salt)” the “% dimer” value ([1]; 0 h) was 0%, the “% monomer” value ([1]; 0 h) was 100% and the “% dimer” value ([1]; 69 h) was 3.3%. The “% monomer” value ([1]; 69 h) was 96.7%, the “% dimer” value ([1]; 140 h) was 6.1% and the “% monomer” value ([1]; 140 h) was 93.9%. For the same substance, the “% dimer” value ([1]; 188 h) was 6.4%, the “% monomer” value ([1]; 188 h) was 93.6% and the “% dimer” value ([1]; 236 h) was 6.8%. For the same substance, the “% monomer” value ([1]; 236 h) was 93.2%, the “% dimer” value ([1]; 309 h) was 6.7% and the “% monomer” value ([1]; 309 h) was 93.3%. The “% dimer” value ([1]; 357 h) was 6.7%, the “% monomer” value ([1]; 357 h) was 93.3% and the “% dimer” value ([1]; 404 h) was 7.3%. The “% monomer” value ([1]; 404 h) was 92.7%, the “% dimer” value ([1]; 477 h) was 8.4% and the “% monomer” value ([1]; 477 h) was 91.6%. For the same substance, the “% dimer” value ([1]; 525 h) was 9.0%, the “% monomer” value ([1]; 525 h) was 91.0% and the “% dimer” value ([1]; 622 h) was 10.7%. For the same substance, the “% monomer” value ([1]; 622 h) was 89.3%, the “% dimer” value ([2]; 0 h) was 0% and the “% monomer” value ([2]; 0 h) was 100%. For the same substance, the “% dimer” value ([2]; 73 h) was 0%, the “% monomer” value ([2]; 73 h) was 100% and the “% dimer” value ([2]; 143 h) was 0%. For the same substance, the “% monomer” value ([2]; 143 h) was 100%, the “% dimer” value ([2]; 243 h) was 0% and the “% monomer” value ([2]; 243 h) was 100%. For the same substance, the “% dimer” value ([2]; 312 h) was 0%, the “% monomer” value ([2]; 312 h) was 100% and the “% dimer” value ([2]; 410 h) was 0%. For the same substance, the “% monomer” value ([2]; 410 h) was 100%, the “% dimer” value ([2]; 576 h) was 0.3% and the “% monomer” value ([2]; 576 h) was 99.7%. For the same substance, the “% dimer” value ([2]; 677 h) was 0.7%, the “% monomer” value ([2]; 677 h) was 99.3% and the “% dimer” value ([2]; 818 h) was 0%. The “% monomer” value ([2]; 818 h) was 100%.

For “Ac-Pro-His-Ser-Cys-Asn-NH2 Methanesulfonic Acid Salt (Ac-PHSCN-NH2; also: methanesulfonic acid salt)”, the “% dimer” value ([3]; 0 h) was 7.4%, the “% monomer” value ([3]; 0 h) was 92.6% and the “% dimer” value ([3]; 69 h) was 22.6%. The “% monomer” value ([3]; 69 h) was 77.4%, the “% dimer” value ([3]; 140 h) was 30.3% and the “% monomer” value ([3]; 140 h) was 69.7%. The “% dimer” value ([3]; 213 h) was 37.2%, the “% monomer” value ([3]; 213 h) was 62.8% and the “% dimer” value ([3]; 332 h) was 48.0%. The “% monomer” value ([3]; 332 h) was 52.0%, the “% dimer” value ([3]; 408 h) was 54.5% and the “% monomer” value ([3]; 408 h) was 45.5%. For the same substance, the “% dimer” value ([3]; 479 h) was 60.5%, the “% monomer” value ([3]; 479 h) was 39.5% and the “% dimer” value ([3]; 549 h) was 66.7%. The “% monomer” value ([3]; 549 h) was 33.3%, the “% dimer” value ([3]; 645 h) was 74.3% and the “% monomer” value ([3]; 645 h) was 25.7%. The “% dimer” value ([3]; 720 h) was 79.5%, the “% monomer” value ([3]; 720 h) was 20.5% and the “% dimer” value ([3]; 836 h) was 84.8%. The “% monomer” value ([3]; 836 h) was 15.2%, the “% dimer” value ([4]; 0 h) was 6.8% and the “% monomer” value ([4]; 0 h) was 93.2%. The “% dimer” value ([4]; 161 h) was 7.2%, the “% monomer” value ([4]; 161 h) was 92.8% and the “% dimer” value ([4]; 335 h) was 7.5%. For the same substance, the “% monomer” value ([4]; 335 h) was 92.5%, the “% dimer” value ([4]; 498 h) was 7.0% and the “% monomer” value ([4]; 498 h) was 93.0%. For the same substance, the “% dimer” value ([4]; 670 h) was 7.7%, the “% monomer” value ([4]; 670 h) was 92.3% and the “% dimer” value ([4]; 832 h) was 7.2%. For the same substance, the “% monomer” value ([4]; 832 h) was 92.8%, the “% dimer” value ([4]; 1003 h) was 7.2% and the “% monomer” value ([4]; 1003 h) was 92.8%. For the same substance, the “% dimer” value ([4]; 1170 h) was 7.3%, the “% monomer” value ([4]; 1170 h) was 92.7% and the “% dimer” value ([4]; 1363 h) was 8.6%. The “% monomer” value ([4]; 1363 h) was 91.4%, the “% dimer” value ([4]; 1506 h) was 7.6% and the “% monomer” value ([4]; 1506 h) was 92.4%. For the same substance, the “% dimer” value ([4]; 1698 h) was 8.1% and the “% monomer” value ([4]; 1698 h) was 91.9%.

In the case of “Ac-Pro-His-Ser-Cys-Asn-NH2 (Ac-PHSCN-NH2) [Free Base]”, the “conversion to other products (e.g., the dimer)” value ([1]; in solution after more than 500 hours at room temperature) is reported as “completely converted to other products”, the “% dimer” value ([1]; 0 h) is reported as 6.7% and the “% monomer” value ([1]; 0 h) is reported as 93.3%. For the same substance, the “% dimer” value ([1]; 69 h) was 17.4%, the “% monomer” value ([1]; 69 h) was 82.6% and the “% dimer” value ([1]; 140 h) was 23.5%. For the same substance, the “% monomer” value ([1]; 140 h) was 76.5%, the “% dimer” value ([1]; 188 h) was 28.1% and the “% monomer” value ([1]; 188 h) was 71.9%. The “% dimer” value ([1]; 236 h) was 34.3%, the “% monomer” value ([1]; 236 h) was 65.7% and the “% dimer” value ([1]; 309 h) was 38.9%. For the same substance, the “% monomer” value ([1]; 309 h) was 61.1%, the “% dimer” value ([1]; 357 h) was 43.3% and the “% monomer” value ([1]; 357 h) was 56.7%. For the same substance, the “% dimer” value ([1]; 404 h) was 51.4%, the “% monomer” value ([1]; 404 h) was 48.6% and the “% dimer” value ([1]; 477 h) was 68.7%. For the same substance, the “% monomer” value ([1]; 477 h) was 31.3%, the “% dimer” value ([1]; 525 h) was 83.2% and the “% monomer” value ([1]; 525 h) was 16.8%. For the same substance, the “% dimer” value ([1]; 622 h) was 100%, the “% monomer” value ([1]; 622 h) was 0% and the “% pure in the solid phase” value ([2]; solid phase, after more than 800 hours at room temperature, i.e., 23-25° C.) was “greater than 82%”. For the same substance, the “% dimer” value ([2]; 0 h) was 8.5%, the “% monomer” value ([2]; 0 h) was 91.5% and the “% dimer” value ([2]; 73 h) was 10.0%. The “% monomer” value ([2]; 73 h) was 90.0%, the “% dimer” value ([2]; 143 h) was 11.5% and the “% monomer” value ([2]; 143 h) was 88.5%. For the same substance, the “% dimer” value ([2]; 243 h) was 12.7%, the “% monomer” value ([2]; 243 h) was 87.3% and the “% dimer” value ([2]; 312 h) was 14.0%. For the same substance, the “% monomer” value ([2]; 312 h) was 86.0%, the “% dimer” value ([2]; 410 h) was 13.8% and the “% monomer” value ([2]; 410 h) was 86.2%. The “% dimer” value ([2]; 576 h) was 15.2%, the “% monomer” value ([2]; 576 h) was 84.8% and the “% dimer” value ([2]; 677 h) was 16.1%. For the same substance, the “% monomer” value ([2]; 677 h) was 83.9%, the “% dimer” value ([2]; 818 h) was 17.9% and the “% monomer” value ([2]; 818 h) was 82.1%. For the same substance, the “% dimer” value ([3]; 0 h) was 7.8%, the “% monomer” value ([3]; 0 h) was 92.2% and the “% dimer” value ([3]; 69 h) was 26.1%. For the same substance, the “% monomer” value ([3]; 69 h) was 73.9%, the “% dimer” value ([3]; 140 h) was 30.7% and the “% monomer” value ([3]; 140 h) was 69.3%. For the same substance, the “% dimer” value ([3]; 213 h) was 35.0%, the “% monomer” value ([3]; 213 h) was 65.0% and the “% dimer” value ([3]; 332 h) was 42.5%. The “% monomer” value ([3]; 332 h) was 57.5%, the “% dimer” value ([3]; 408 h) was 46.4% and the “% monomer” value ([3]; 408 h) was 53.6%. The “% dimer” value ([3]; 479 h) was 51.0%, the “% monomer” value ([3]; 479 h) was 49.0% and the “% dimer” value ([3]; 549 h) was 56.2%. The “% monomer” value ([3]; 549 h) was 43.8%, the “% dimer” value ([3]; 645 h) was 68.9% and the “% monomer” value ([3]; 645 h) was 31.1%. For the same substance, the “% dimer” value ([3]; 720 h) was 82.2%, the “% monomer” value ([3]; 720 h) was 17.8% and the “% dimer” value ([3]; 836 h) was 98.5%. The “% monomer” value ([3]; 836 h) was 1.5%, the “% dimer” value ([4]; 0 h) was 6.1% and the “% monomer” value ([4]; 0 h) was 93.9%. For the same substance, the “% dimer” value ([4]; 161 h) was 11.6%, the “% monomer” value ([4]; 161 h) was 88.4% and the “% dimer” value ([4]; 335 h) was 12.5%. For the same substance, the “% monomer” value ([4]; 335 h) was 87.5%, the “% dimer” value ([4]; 498 h) was 14.6% and the “% monomer” value ([4]; 498 h) was 85.4%. For the same substance, the “% dimer” value ([4]; 670 h) was 14.8%, the “% monomer” value ([4]; 670 h) was 85.2% and the “% dimer” value ([4]; 832 h) was 15.7%. The “% monomer” value ([4]; 832 h) was 84.3%, the “% dimer” value ([4]; 1003 h) was 17.0% and the “% monomer” value ([4]; 1003 h) was 83.0%. The “% dimer” value ([4]; 1170 h) was 16.5%, the “% monomer” value ([4]; 1170 h) was 83.5% and the “% dimer” value ([4]; 1363 h) was 17.6%. For the same substance, the “% monomer” value ([4]; 1363 h) was 82.4%, the “% dimer” value ([4]; 1506 h) was 18.6% and the “% monomer” value ([4]; 1506 h) was 81.4%. For the same substance, the “% dimer” value ([4]; 1698 h) was 19.2% and the “% monomer” value ([4]; 1698 h) was 80.8%.
